Test results published in the NTF2 design screens of Basanta et al. (2020).

Test: protease stability score; higher = more stable; yeast display proteolysis, trypsin and chymotrypsin;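 further: relative to predicted unfolded state with 0 unfolded-like and 1 meaning tenfold more protease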

DEEEAHTRHILELFKHNYHTGDEDLFRRLLDPNVRLHIDGVNIHGREEVVEVLVKLAHEIRVELRVKHIRIINGVAEVDIELTIHQGDKHESRKIHLFILKVNGRWRVESIQWR
protease stability score: 1.42

DEEEDAKKFVLDVWRETLETGDEKLLLELIDPHVRIIIGDKEDHGRETLLHHFREIRFEDFQVRDIRVIGEKIHIHGEHLIRFDGRRVRLEIEIIMTKINGRWLVEEIRIR
protease stability score: 2.58

DEEEDDVRRLIERFQHNFDTGNWHMLEHLVDPHARINFDGVESHGMELIVHVNEHMRIHDTHIRDIRIDVVGDKVFVENIVRVESEINGQHRDVEMRISMVITKVNGRWLIKEIRIKIH
protease stability score: 0.974

DEEEDHERHLVERTIHSLETGDWHETHELLDPHVRIQIVQGDKSLDLHGREAAVKFFLDWLRRVPNMRLEFKRIEDYDGVSHIDGVLRIGDKEMRFEIEIHVFNGVVKRMHIRMH
protease stability score: 1.38

DEEEDHERRFLEELLRDWVTGDENKLDELFDPDARNYINGRRYHGREDVREVLKLLKDRIDHIEMTDIKDVKIQGDKMRFDTRVHLRQGDKTIRIKTHFVIWKVNGKWRMEAVVIV
protease stability score: 1.02

DEEEDKLRKFADHFWHLRLTGDFDIWEHLADPDTKENQGEYSNIGREHISEYNLRETRKFKNIRMHIRRKTIQGDKIKIDGVLIFNGVEIEVILILIVINGRIREVRVHIE
protease stability score: 1.6

DEEEDLQRHVADEFLHNLLTGNEHDIERLMDPNVKLIMDVNGVKLHFHGREQVLKLLREWRLDHWEVKRRHLVGDYAVLDGHQQGVIDGREVRTDSEIELRLYNGRMKEVTIRVR
protease stability score: 1.47

DEEEDRIMKMLRLIILEIVTGDEEKFRHLFDPDARFIVGNKTYHGWEMWHEEFRHIRITEMELEHYDVINGRAHLHTRLRGKINGREIDTETRLIVVVINGKIHSIELRIH
protease stability score: 2.18

DEEEDRLRRLAKTLLENWVTGDEEMHQRFADPNTRLNVDVDGKEIHRHGREEMLKDLRHELERVDHWELRLRDMKIFDGVVDIDGELILNINGKVIRQEVRIIMVIVNGRLRSVHFQVH
protease stability score: 1.26

DEEEDTARFLMELILHDLETGDEERLFRLMDPHTRLDIDGQQYHGRELVLQLHETLLERWGVERVEAFLRRTEIQGEKVLSDVHRHFNGVTVKTHIVLEKFNGRWSTKTLEYK
protease stability score: 0.6

DEEEDVMRKWLQLFLEAFETGDFRLIEEMFDPNTRLDVGDKEYHGRDEIARVIRTLWEEMRFEHFHIHRFDVFNGVANSDTHVVGKIGDKRRDVRVHIILIIVNGKLKKFRIETR
protease stability score: 1.71

DEEEEALEEVLRLLSKAILTGDEDQMRELVDPHVRVHVGDKDLIGWDRYKRHTKEMRIIIHRFELRDKRRVGNKLEFDGHMDYELIVNGRTWKHREDMFMVIVKVNGKWHIHYEQVD
protease stability score: 0.88

DEEEEALRLAFELIYTVLRTGDEEMWRRMADPDTKIDIGDKHFHGREHVEYVLRELHKRIDHIDHSHIDHVHVQGDKVHMDTTIVGTYDGQRTNLKTSFIVVKINGKWVMTSVRFR
protease stability score: 1.38

DEEEEATEKFFEKLLRSWKTGDEKSYEELLDPHARSDINGKIFHGRDKLSQMLHEFLKRVKGITIHDVKVHDSRLIDGRAILDGRVDMKVGDKRFELNREVVTLKVDGRWILESEIVK
protease stability score: 0.767

DEEEEDAERLLRELITWLYTGDFESLEKLMDPTTKLIQGDKTFIGREYLSKLFHDWGHTNVRAKLEDIKVVNGQVHIYGRLHYGDKTSETHFIVRKVNGKWLIKIVEFR
protease stability score: 1.62

DEEEEDAHRLMHNVVHALRTGDWEEFSRLLDPNVMVIIGDKLFIGRETVLEMIKRMLDDWGVTRIHLHIHSKHVQGNKLHVDSQIDVNGRTTRVHIDATKIDGRWLLKRIEIK
protease stability score: 2.14

DEEEEDFRMAEHFIRKSLKTGDERLREELMDPHVRIHQGDKHFHGREDASELHRQFDHIEHVHLKDFHFYNGRVIMHMHVLGHWDGRRTRFDTHVTATKIDGRWIVKEWTII
protease stability score: 0.552

DEEEEDIDFLIHLLVKTIKTGDEHIFRRLMDPHVRMHAEGRELHGREVVVERWAKIMRELRITHIEVTHKDVVDGQVELHMRIKFRVGDKEKETRVELHAEKIDGRWVIRSIHIL
protease stability score: 1.75

DEEEEDIEKFFKEWTRNVLTGNWERLRELADPHAKAVVDGVETHGMESLDKLIDESERKLGVDHTHLESVHVQGEWIHFHLRIIIGDKYLKLHIHTLVIDGRVKSMNVEFHSD
protease stability score: 1.16

DEEEEDIRRAVTRFIEVILTGDEHSLERLMDPHVKIDIGDKHLHGREAKDRLRDEMRRKFKNLRIHMRDWHLEIYDGVAHSTFDFELEINGKRTHLELRVDVRKVDGRWLIDSYEIKIR
protease stability score: 1.15

DEEEEDMKNMLRIWEETVETGDEHTKERFADPNMRLVVNGVSSHGMESFKTVIKWEHERYDHLKKIEIHRLEFFDGRVIIDGTFTGNIDGVEYKRRIILIMVKVDGRWLLEEVIIH
protease stability score: 1.39

DEEEEDSEDAVRFIMLALDTGDEKLLTSLADPNMRLDVNGREFHGREDFIHFLEEVRKKLGVDRIRTHVRETHVINGRVHVRGELRWNGRTHESHVHIIKIDGKWVIKSVHIR
protease stability score: 2.11

DEEEEDVRRAVEIWERSLRTGDEHEVKRFVDPHTRLEVDGREFHGREQFIEVMRHWRFRHFQIRDFRVIDGRADVDAISEVDYNGRRFEVKTIIIVIKINGRWVLHSLNIR
protease stability score: 1.63

DEEEEEAHTITEILVHDWRTGNEEHLVKLIDPNARINYNGVNLHGMKAVSIILHHIRYKDVSLHEVRVFDGQVEIILKIHVNINGQDETHHTHIVLSKVNGRWLIDTIKWE
protease stability score: 1.28

DEEEEEARIAVDMFRRTVETGDEELLRKMIDPHVRMHVGDKDLHGRDFAVEIFHKLGVDHFEIRHQRLIGDKVELDIKVNVNGKEMETHSHLEKVNGRWVIRSLDVR
protease stability score: 1.25

DEEEEEDKRMADEIVHSFLTGNEDWLHELADPNTRSEVGDKEAHGRENMVKLLRIHLRELGVDHIELTHVRVHSQGDKIIVIVHGKVKIGDKILELHIHIIVLKIDGRWLLHSVRIEIN
protease stability score: 1.09

DEEEEEDRHAAEITIKVLLTGDEKKLQELADPHTRFIIWIDGRELRYIGRRDLVRVWREIIRKLGIDHLSLDDMRVIDGKIHLHETMNVDGKNISRRIINNVINGVNKHIEVNLS
protease stability score: 1.17

DEEEEEHRIAHELFIKTSQTGDEQESTEMMDPNVRVTIGNKHFVGREEVSKFFKEIRIKRVRFKRIRHINGKAEMEMHMHGEVNGRERELEIHVYIFKINGRWVIEEVRFH
protease stability score: 1.64

DEEEEEILRVWEILIHLFVTGDEEKFSKMADPDYKWHQGDKSRIGRESMREHIKKFLEELRIKELHLHHTHVFDGRYEADVELRGHINGRESRIKSRIILEVYNGRVKLFIIDIR
protease stability score: 0.559

DEEEEELHRLSRLILHLLLTGDWEKLADLADPHMRFEMVVGDKNEEFHGRERWLKFLRMVREKFKGMRIHLQDERVYGDKNDLDIVLNVNGQRHKVHLHLVVVDGVIKEIKIKVE
protease stability score: 2.18

DEEEEELKQHLHEILHSIMTGDWRSLRHLIDPNVRLDIGDKTYHGREDFLTWVKHLIDKIPNVKFEIKHIRIVGEKVIMNIVVKINGVEHTRHLIADKIDGKWFISSTEVH
protease stability score: 1.76

DEEEEELRELARISLELWITGDEDHLRHLMDPRTLLIVDGQEVHGREEAIKWVAFHLLKIKGLTLELKDFDVINGRLHLHVTRRVNGVRRRLRIHIEIIDGRIKTIRITID
protease stability score: 2.28

DEEEEELRRLLEEIFRNRVTGDEERWLELADPDVRLEEHINGQEIHLHGREDVAEHIREARIHSTEVKDVKVINGVIHLDEKIDGIINGVRRDTRVIVHIVVINGRIKSIRVIVN
protease stability score: 1.65

DEEEEEMHRRARIFLELWMTGNEEVFNTLFDPNVRLHMNIGEKTHDFVGRETVHEVNRRWLEHIRIEDFKVREIRVQGDYATSDTRIVGIFDGRRIDIDVKIHILIVDGRLKEVELRFD
protease stability score: 2.1

DEEEEEMRKMIDEILKDQATGDEDRLKKLLDPNMRSEINGKDLHGREIVTETLAHLFRFLGIKHVHLNDYRIQGDKVEIYGELEINGQKHTNKIHAEKVNGKWVISEMRLH
protease stability score: 1.43

DEEEEERRRIAKELTHLWHTGDEDRLIEMADPNDRILIGDFDIHGWESAMRFLRYFRREFGVKHEEIKDIEIQGEKTHIHSHLKVGDKRHHVLVILVVINGRHKRIEIRIH
protease stability score: 0.755

DEEEEESHEATEMILYAHKTGDFDLWEKLADPHVRLDVNGVHVHGREEYVRIMRHIHKNWGVQRFHVEFHDLELQGEKVRVRLRSNFNGRHHTETIIIEKINGRWYLKTRRIT
protease stability score: 1.42

DEEEEESKQVAELIITLLTTGDEERFLELADPNVRHHQGDKELHGREDLHKTVEDWGWSKVDSRLEDVEVQGEFVIVRGKMIVNGRRVDVEYIVRKVDGRWYIHMVIYH
protease stability score: 1.07

DEEEEETHEYMRLLVRLFLTGDEEVFDRLADPNRRLKWNGREYHGREQTNRVWRELGVKHRRIEDIKMQGDKVVIEGTVHIGDKTLRTTVSFVIIDGRTKSIEIRDI
protease stability score: 1.46

DEEEEEVKKVFEMLEKSLETGDEKLWEHMADPNTRIDIGDKEIHGRESFHEIVKHIRIKDIRMRIHEWRTYDGRLDLRGQVELHLNINGKHLDITVEHRLIIVKINGRWLLEEETIV
protease stability score: -0.109

DEEEEEVRKLAHIHLHWLKTGDEEFEKKYADPHTKFRFNGRSSHGMEDFAEWVREIRIHDVIIRRVRVVNGVNEIDMEVDFEFDGKRIRSQTQILLFIYDGRIKSTEFTIR
protease stability score: 0.805

DEEEEEWERIARRLVKAWLTGDEDLLSFLADPHVRLHVGDKHNHGREHVERHWKEYLDRVKNVRIHVHHVEIQGEKIIIHVEVEINGRTFNMRVIIIVINGRIKEIVIHIH
protease stability score: 0.635

DEEEEFAKELIEEVTKTILTGDFRTFLELFDPNARLEFNGREIHGMEDWLKMMDELRREIWIHHNHNHRIEVQGDKAHTESRLDVSYNGQRYTLHSRLSIDVVDGRLKRLEYRTK
protease stability score: 1.5

DEEEEFATRIMKILLKALLTGDETTLKHLIDPHTRFIFVIGEKIVHVHGRDEIAKFWETLRREIRIEDITIDRIRVQGEKVETDGYIHIWIGDKLVDVESHDEWVIVNGRIKHIRMEIK
protease stability score: 1.93

DEEEEFLHTLLRIFVEALMTGDEELLKKLADPHTKVRFNGQERHGWHAIQWMIEFFKNVRIEIHDMHIQGDKVHIDGRLKQGDKKLEMRIIIVIVNGKVHNEEYDLR
protease stability score: 1.12

DEEEEFLRLILETLRHAAETGDWHILNRLLDPDARIVIGDKEIHGREKVQHEFRRIDHYQWHHIILDRVHIYDGRIELHGQVEEELNVDGQRIRRLTDTHFVIVKVDGQWKIHTIEIR
protease stability score: 2.22

DEEEEFQRELVKLLVEWVHTGDWEHISKYADPHVKVHVDGRDSIGREEMRKTLKRFSDLLGADHIRFEHVRIIDGRVTIHSRVEYGDKEHHIIIQSSKIDGRWYLHSVDIR
protease stability score: 0.995

DEEEEFYEKMFRLWFELLLTGDESTLIKLLDPHVRIDFNGRELIGWFYLSHFMREFRHRFDHVEIIIRRVTVIDGVARSDLELRVNINGKDHTVKTEVHIRVVNGRMKSLEFHIK
protease stability score: 0.965

DEEEEHAEHMLRLWFHILHTGDWEDLVRLIDPNARLRVGDKTFHGMERLVRRHLEHKRRLGLDNFDFQVDNFEVYGDKIDIDVTENINGREYKVIIHIIVINGRVKNMHIKIN
protease stability score: 0.925

DEEEEHAITFMKILIHLWITGDWETLKRLADPDTKVIERFNGKRVEIHGRELWSKIRKEIIDQLRIRIHPHHVSVVGDKLYSDEHLVFHYNGRDIRLDIHLEMVVVNGRMKHFRFHEE
protease stability score: 1.06
